This passage reports Kd results from the Immune Epitope Database (IEDB).

Targets include HLA-A*03:01; HLA-A*11:01; HLA-A*31:01; HLA-A*33:01; HLA-A*68:01.
Common to all, as to experiment: IEDB peptide-MHC binding, purified MHC/competitive/radioactivity; filed as Kd, often an IC50 or EC50 that approximates it; ≥ and ≤ were set here for values at or beyond the usual limits of such assays
Setting [1] is: source organism: Vaccinia virus WR.
The mark [2] stands for this setting: source organism: Lassa virus Josiah.
Setting [3] is: source organism: SARS coronavirus Tor2.
The mark [4] stands for this setting: source organism: Dengue virus 1 Brazil/97-11/1997.
Setting [5] is: source organism: Dengue virus 2 Jamaica/1409/1983.
Where [6] appears, read: source organism: Dengue virus 4 Philippines/H241/1956.
Setting [7] is: source organism: Dengue virus 1 Nauru/West Pac/1974.
[8] abbreviates: source organism: Mammarenavirus guanaritoense.

pKd: −log10 of the molar value.

In the case of IQLDEKSSIK, the pKd with HLA-A*03:01 (setting [1]) was 8.90; with HLA-A*11:01 (setting [1]), 8.34; in the assay with HLA-A*31:01 (setting [1]), 7.09; with HLA-A*33:01 (setting [1]), at most 4.15; in the assay with HLA-A*68:01 (setting [1]) it was 6.26.
For TTGRTSLPK, the negative logarithm of the Kd (pKd) with HLA-A*03:01 (setting [2]) was 5.28; with HLA-A*11:01 (setting [2]) it was 5.75; in the assay with HLA-A*31:01 (setting [2]) it was 4.74; in the assay with HLA-A*33:01 (setting [2]) it was 4.84; with HLA-A*68:01 (setting [2]) it was 4.88.
With RQFHQKLLK, the pKd with HLA-A*03:01 (setting [3]) was 7.90; with HLA-A*11:01 (setting [3]) it was 7.88; in the assay with HLA-A*31:01 (setting [3]), 8.07; in the assay with HLA-A*33:01 (setting [3]), at most 4.11; with HLA-A*68:01 (setting [3]) it was at most 4.40.
In the case of VTVASAAQR, the pKd with HLA-A*68:01 (setting [4]) is 7.31.
With NSTCYVFGLY, the pKd with HLA-A*03:01 (setting [1]) was 6.79; in the assay with HLA-A*11:01 (setting [1]) it was 7.71; with HLA-A*31:01 (setting [1]), 5.49; with HLA-A*33:01 (setting [1]), 5.05; with HLA-A*68:01 (setting [1]) it was 8.05.
KLLQTLVLK: the pKd was 6.06 with HLA-A*03:01 (setting [3]); 5.97 in the assay with HLA-A*11:01 (setting [3]); 5.61 in the assay with HLA-A*31:01 (setting [3]); at most 4.35 in the assay with HLA-A*33:01 (setting [3]); at most 4.40 in the assay with HLA-A*68:01 (setting [3]).
Take ESALNDTWK: the pKd in the assay with HLA-A*68:01 (setting [5]) was 7.04.
As to DSEPISILDR, the pKd with HLA-A*03:01 (setting [1]) is at most 4.15; in the assay with HLA-A*11:01 (setting [1]), at most 4.21; in the assay with HLA-A*31:01 (setting [1]), at most 4.28; with HLA-A*33:01 (setting [1]), 5.34; in the assay with HLA-A*68:01 (setting [1]) it was 6.29.
With DTSECPNERR, in the assay with HLA-A*68:01 (setting [6]), the pKd is 6.91.
For SMRYQSLIPR, the pKd is 8.87 with HLA-A*03:01 (setting [1]); 9.00 in the assay with HLA-A*11:01 (setting [1]); 9.44 in the assay with HLA-A*31:01 (setting [1]); 9.21 with HLA-A*33:01 (setting [1]); 7.69 with HLA-A*68:01 (setting [1]).
Take LLTDTIESAK: the pKd was 6.72 with HLA-A*03:01 (setting [1]); 7.07 in the assay with HLA-A*11:01 (setting [1]); 5.00 with HLA-A*31:01 (setting [1]); 5.63 with HLA-A*33:01 (setting [1]); 6.18 in the assay with HLA-A*68:01 (setting [1]).
Turning to AINVLRGFR, the pKd with HLA-A*31:01 (setting [5]) was 8.43.
As for KLSAGVEFLK, the pKd with HLA-A*03:01 (setting [3]) was 7.83; with HLA-A*11:01 (setting [3]), 7.55; in the assay with HLA-A*31:01 (setting [3]), 6.29; with HLA-A*33:01 (setting [3]) it was 5.21; in the assay with HLA-A*68:01 (setting [3]), 7.00.
Turning to LMCHATFTTR, the pKd was 7.90 in the assay with HLA-A*31:01 (setting [6]) and 7.01 in the assay with HLA-A*33:01 (setting [6]).
As for TVVRDFENY, the pKd with HLA-A*03:01 (setting [1]) is at most 4.20; in the assay with HLA-A*11:01 (setting [1]), 5.92; with HLA-A*31:01 (setting [1]), at most 4.11; with HLA-A*33:01 (setting [1]), at most 4.11; in the assay with HLA-A*68:01 (setting [1]), 5.96.
Regarding TALAFHLTTR, the pKd was at most 4.40 in the assay with HLA-A*31:01 (setting [4]) and 7.00 with HLA-A*68:01 (setting [4]).
Take ALCTLLHLHR: the pKd with HLA-A*03:01 (setting [3]) was 6.52; with HLA-A*11:01 (setting [3]), 6.33; with HLA-A*31:01 (setting [3]), 7.29; with HLA-A*33:01 (setting [3]), 6.40; with HLA-A*68:01 (setting [3]), 5.47.
As to YALINLVQYR, the pKd in the assay with HLA-A*03:01 (setting [1]) is 4.93; with HLA-A*11:01 (setting [1]) it was 5.16; with HLA-A*31:01 (setting [1]), 6.24; in the assay with HLA-A*33:01 (setting [1]) it was 5.90; with HLA-A*68:01 (setting [1]), 7.66.
For SISNITTATR, the pKd with HLA-A*31:01 (setting [6]) is 6.20; with HLA-A*33:01 (setting [6]), 7.97; with HLA-A*68:01 (setting [6]) it was 7.87.
As for RVSTVSQLAK, the results for the pKd with HLA-A*03:01 (setting [7]) and with HLA-A*11:01 (setting [7]) were 8.22 and 7.39, respectively.
For the sequence NSYSLIRLSH, the pKd in the assay with HLA-A*03:01 (setting [8]) was 5.00; in the assay with HLA-A*11:01 (setting [8]), at most 4.61; with HLA-A*31:01 (setting [8]), 5.01; with HLA-A*33:01 (setting [8]), 5.49; with HLA-A*68:01 (setting [8]), 4.99.
As for YIAVANCVR, the negative logarithm of the Kd (pKd) was at most 4.11 in the assay with HLA-A*03:01 (setting [1]); 4.86 with HLA-A*11:01 (setting [1]); 7.85 with HLA-A*31:01 (setting [1]); 6.55 with HLA-A*33:01 (setting [1]); 8.17 with HLA-A*68:01 (setting [1]).
In the same order, the values of LIDTTSRELK are 7.41, 6.79, 6.83, 6.15 and 6.36.
SFYVYANGGR: the pKd was 5.78 with HLA-A*03:01 (setting [3]); 5.93 in the assay with HLA-A*11:01 (setting [3]); 7.05 with HLA-A*31:01 (setting [3]); 6.74 with HLA-A*33:01 (setting [3]); 6.10 with HLA-A*68:01 (setting [3]).
For GLCAHILLY, the pKd in the assay with HLA-A*03:01 (setting [1]) is 7.85; with HLA-A*11:01 (setting [1]) it was 7.43; with HLA-A*31:01 (setting [1]), 4.74; in the assay with HLA-A*33:01 (setting [1]), 5.08; in the assay with HLA-A*68:01 (setting [1]) it was 5.49.
As for VVYRAFDIY, the pKd was 6.79 in the assay with HLA-A*03:01 (setting [3]); 6.83 in the assay with HLA-A*11:01 (setting [3]); 5.10 in the assay with HLA-A*31:01 (setting [3]); at most 4.60 in the assay with HLA-A*33:01 (setting [3]); 5.48 with HLA-A*68:01 (setting [3]).
As for KSIENKHQRR, the pKd with HLA-A*03:01 (setting [1]) was 4.95; with HLA-A*11:01 (setting [1]), 6.70; with HLA-A*31:01 (setting [1]), 9.22; with HLA-A*33:01 (setting [1]), 5.03; with HLA-A*68:01 (setting [1]), 4.95.
